The values below come from US20240254222A1 (Bayer, published 2024).

Changes are numbered by the printed parent chain.

The term Kd denotes the concentration at which binding is half-saturated. Low readings indicate a tighter complex, high ones a looser complex. By EC50 is commonly meant the midpoint of the concentration-response curve.

In assay [1] the target is T1, Mouse Semaphorin3A-Sema Domain, TPP-19069 (mouse, UniProt O08665 21-569).
T1 construct: produced inhouse
T1 sequence: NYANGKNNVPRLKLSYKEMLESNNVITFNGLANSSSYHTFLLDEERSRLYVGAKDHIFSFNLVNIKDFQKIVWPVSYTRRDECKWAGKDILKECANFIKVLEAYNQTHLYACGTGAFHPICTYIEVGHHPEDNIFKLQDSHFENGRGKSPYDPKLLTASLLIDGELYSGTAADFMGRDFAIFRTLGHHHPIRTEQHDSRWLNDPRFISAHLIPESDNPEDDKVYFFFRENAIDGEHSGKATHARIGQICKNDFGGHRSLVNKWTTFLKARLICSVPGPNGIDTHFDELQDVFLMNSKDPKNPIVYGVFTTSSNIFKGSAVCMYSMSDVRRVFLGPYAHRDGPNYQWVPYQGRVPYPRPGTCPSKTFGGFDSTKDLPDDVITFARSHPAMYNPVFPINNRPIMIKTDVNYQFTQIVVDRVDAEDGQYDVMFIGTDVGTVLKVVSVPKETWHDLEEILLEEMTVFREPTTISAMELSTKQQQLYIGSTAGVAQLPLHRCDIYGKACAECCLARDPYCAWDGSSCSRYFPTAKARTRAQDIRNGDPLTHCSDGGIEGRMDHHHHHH
The assay can be described thus: SPR, captured antibody, Sema3A domain analyte. As for the experimental part: (§1) To assess the binding kinetics and affinity of anti-Sema3A antibodies as well as their species cross-reactivity profile, binding assays were conducted using surface plasmon resonance (SPR). Binding assays were performed on a Biacore T200 instrument or on a Biacore 8K+ instrument (Cytiva) at 25° C. using assay buffer HBS P+, 300 mM NaCl, 0.75 mM CaCl₂, 2.5 mM MgCl₂, 1 mg/ml BSA, 0.05% NaN₃. Antibodies were captured either via anti-human Fc IgGs (“Human antibody capture kit”, Order No. BR100839, Cytiva) or in case of Fc-tagged analytes by anti-human Fab IgGs (“Human Fab capture kit”, Order No. 28958325, Cytiva) covalently amine coupled to a Series S CM5 sensor chip (Cytiva). The amine coupling was carried out according to the manufacturer's instructions using 1-ethyl-3-(3-dimethylaminopropyl) carbodiimide hydrochloride (EDC), N-hydroxysuccinimide (NHS) and ethanolamine HCl, pH 8.5 (“Amine Coupling Kit” BR-1000-50, Cytiva.). For phage display hits Fc-tagged human and mouse Sema3A was used as analytes in a concentration range from 1.56-200 nM. Human, mouse, cynomolgus, rat, dog and pig monovalent Sema3A domain were used as analytes in a concentration series from […] in multi cycle kinetics mode or in 100 nM for binding analysis only. The sensor surface was regenerated with glycine pH 2.0 after each antigen injection. Obtained sensorgrams were double referenced (subtraction of reference flow cell signal and buffer injection) and were fitted to a 1:1 Langmuir binding model to derive kinetic data using the Biacore T200 Evaluation software.

Assay [2] has as its target T2, Human Semaphorin3A-Sema Domain, TPP-19068 (human, UniProt Q14563 21-569).
T2 construct: produced inhouse in HEK293-6E; also called human monovalent Sema3A domain
T2 sequence: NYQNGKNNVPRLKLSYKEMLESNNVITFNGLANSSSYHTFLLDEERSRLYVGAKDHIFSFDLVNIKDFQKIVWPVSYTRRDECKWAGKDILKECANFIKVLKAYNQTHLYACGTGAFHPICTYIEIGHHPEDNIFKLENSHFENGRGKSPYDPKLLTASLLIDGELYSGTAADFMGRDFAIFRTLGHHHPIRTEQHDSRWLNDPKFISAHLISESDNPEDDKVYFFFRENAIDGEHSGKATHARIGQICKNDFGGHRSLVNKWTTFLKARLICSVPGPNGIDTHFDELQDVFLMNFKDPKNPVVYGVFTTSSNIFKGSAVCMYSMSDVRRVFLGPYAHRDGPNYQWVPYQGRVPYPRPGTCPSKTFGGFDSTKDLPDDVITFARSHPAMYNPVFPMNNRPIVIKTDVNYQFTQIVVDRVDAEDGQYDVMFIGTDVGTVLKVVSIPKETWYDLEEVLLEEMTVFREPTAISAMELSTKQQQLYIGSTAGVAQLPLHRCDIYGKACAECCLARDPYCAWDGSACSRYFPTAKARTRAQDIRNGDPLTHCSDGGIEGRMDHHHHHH
The assay can be described thus: SPR, captured antibody, Sema3A domain analyte. As for the experimental part:
as §1

Assay [3] deals with T3, Cyno Semaphorin3A-Sema Domain, TPP-19122 (cynomolgus (Macaca fascicularis), UniProt Q63548 21-569 (rat entry), limits assumed).
T3 construct: produced inhouse
T3 chain: T1 sequence with A3Q, E102K, V126I, Q138E, D139N, S296F, V444I, I455V, V489I
The experiment in a line: SPR, captured antibody, Sema3A domain analyte. As for the experimental part: as §1

Assay [4] concerns the target T4, Human Semaphorin3A-Fc (R&D Systems), TPP-13211 (human).
T4 construct: R&D Systems 1250-S3; also called recombinant human Sema3A-Fc chimera
The assay can be described thus: ELISA, coated Sema3A-Fc, antibody 0.00015-10 ug/ml. The procedure:
For the assessment of binding selectivity to Sema3A vs Sema3G, 1 nM recombinant human Sema3A-Fc chimera (R&D Systems) or recombinant human GST—Sema3G (Abnova) were coated on Maxisorb plates, incubated with antibodies in a dose-response curve from 0.00015-10 μg/ml, and the binding of antibodies quantified using HRP coupled anti-human antiserum and chemiluminescent substrate.
In general terms: An ELISA detects its analyte on a solid surface through an enzyme-linked reagent.

T4 sequence (chain, as listed by the source limits assumed): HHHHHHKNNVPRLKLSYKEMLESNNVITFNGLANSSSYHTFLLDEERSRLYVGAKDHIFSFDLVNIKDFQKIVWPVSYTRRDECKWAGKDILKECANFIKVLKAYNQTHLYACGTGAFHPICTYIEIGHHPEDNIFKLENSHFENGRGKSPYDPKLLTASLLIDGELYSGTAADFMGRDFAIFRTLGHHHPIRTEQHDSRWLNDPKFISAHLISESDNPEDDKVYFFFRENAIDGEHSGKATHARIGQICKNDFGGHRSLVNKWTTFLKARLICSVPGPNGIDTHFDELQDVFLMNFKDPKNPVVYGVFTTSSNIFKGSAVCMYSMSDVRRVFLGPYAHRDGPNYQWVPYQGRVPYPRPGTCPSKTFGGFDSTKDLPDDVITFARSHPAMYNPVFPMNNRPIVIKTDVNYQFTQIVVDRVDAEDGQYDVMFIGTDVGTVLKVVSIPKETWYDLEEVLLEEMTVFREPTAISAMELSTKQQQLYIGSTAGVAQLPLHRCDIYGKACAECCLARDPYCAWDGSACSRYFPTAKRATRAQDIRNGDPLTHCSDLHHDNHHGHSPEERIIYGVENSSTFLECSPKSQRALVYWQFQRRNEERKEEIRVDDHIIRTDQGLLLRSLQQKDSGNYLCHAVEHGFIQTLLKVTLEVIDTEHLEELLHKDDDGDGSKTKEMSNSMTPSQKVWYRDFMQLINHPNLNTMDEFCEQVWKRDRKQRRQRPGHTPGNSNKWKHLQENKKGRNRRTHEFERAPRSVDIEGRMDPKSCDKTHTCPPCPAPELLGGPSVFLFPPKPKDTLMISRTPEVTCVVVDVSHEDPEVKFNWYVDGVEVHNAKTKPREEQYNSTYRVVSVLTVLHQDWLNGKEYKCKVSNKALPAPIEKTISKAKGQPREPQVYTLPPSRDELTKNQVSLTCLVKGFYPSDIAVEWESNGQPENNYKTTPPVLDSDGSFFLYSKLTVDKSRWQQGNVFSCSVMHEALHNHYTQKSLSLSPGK

B1: TPP-15374 (antibody, human IgG1, lambda, V domains shown)
VH: EVQLLESGGGLVQPGGSLRLSCAASGFTFSSYEMNWVRQAPGKGLEWVSGISWNSGSIGYADSVKGRFTISRDNSKNTLYLQMNSLRAEDTAVYYCARSGYSSSWFDPDFDYWGQGTLVTVSS
VL: QSVLTQPPSASGTPGQRVTISCTGSSSNIGAGYDVHWYQQLPGTAPKLLIYGNSNRPSGVPDRFSGSKSGTSASLAISGLRSEDEADYYCSSYAGSNPYVVFGGGTKLTVLG
notes: human IgG1; also called IgG1, hit from panning; parental mAb
In the case of B1, the figures for the Kd in assay [1], in assay [2] and in assay [3] were 8.3 nM, 15 nM and 46 nM, respectively.

B2: TPP-17755 (antibody, human IgG1, lambda, V domains shown)
VH: EVQLLESGGGLVQTGGSLRLSCAASGFTFSDYAMSWVRQAPGKGLEWVSWIYYDSGSKYYADSVKGRFTISRDNSKNTLYLQMNSLRAEDTAVYYCAKLNGDFDYWGQGTLVTVSS
VL: QSVLTQPPSASGTPGQRVTISCSGSSSNIGNNDVSWYQQLPGTAPKLLIYADSHRPSGVPDRFSGSKSGTSASLAISGLRSEDEADYYCGAWDSSLSGYVFGGGTKLTVLG
notes: also called Samsung; Samsung Prior Art F11
Take B2: the figures for the Kd in assay [1], in assay [2] and in assay [3] were 3.9 nM, 6.9 nM and 14 nM, respectively.

B3: TPP-23337 (antibody, human IgG4 S228P, lambda, V domains shown)
VH: EVQLLESGGGLVQPGGSLRLSCAASGFTFSSYAMSWVRQAPGKGLEWVSAIGYGGDTYYADSVKGRFTISRDNSKNTLYLQMNSLRAEDTAVYYCARRDDYTSRDAFDYWGQGTLVTVSS
VL: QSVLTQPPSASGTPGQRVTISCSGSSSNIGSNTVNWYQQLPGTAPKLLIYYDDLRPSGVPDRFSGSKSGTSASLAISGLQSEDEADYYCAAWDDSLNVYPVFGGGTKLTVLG
Take B3: the dissociation constant Kd in assay [1] was found to be 0.05 nM; in assay [2], 0.05 nM; in assay [3] it was 0.026 nM. For the same molecule, the EC50 in assay [4] was determined as 15.5 nM.

B4: TPP-15370 (antibody, human IgG1, lambda, V domains shown)
VH: B3 VH with A33G, S35H, Y53T, K64M, Y109V
VL: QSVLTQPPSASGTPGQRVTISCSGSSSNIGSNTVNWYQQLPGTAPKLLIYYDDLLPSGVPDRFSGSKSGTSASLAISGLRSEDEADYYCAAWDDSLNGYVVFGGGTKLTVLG
notes: as for B1
Consider B4, for which the Kd in assay [1] was 7.2 nM; in assay [2], 10 nM; in assay [3] it was 40 nM.

B5: TPP-23346 (antibody, human IgG4 S228P, lambda, V domains shown)
VH: B3 VH with S30Y, S35L, Y53T
VL: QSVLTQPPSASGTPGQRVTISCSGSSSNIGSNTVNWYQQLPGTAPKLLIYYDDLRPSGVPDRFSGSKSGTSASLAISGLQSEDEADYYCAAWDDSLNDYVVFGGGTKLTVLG
In the case of B5, the figures for the Kd in assay [1], in assay [2] and in assay [3] were 0.064 nM, 0.072 nM and 0.061 nM, respectively.

B6: TPP-23345 (antibody, human IgG4 S228P, lambda, V domains shown)
VH: B3 VH
VL: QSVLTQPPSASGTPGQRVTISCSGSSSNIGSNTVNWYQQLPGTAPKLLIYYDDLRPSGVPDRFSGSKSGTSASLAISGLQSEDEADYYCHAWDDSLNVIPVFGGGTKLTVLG
With B6, the dissociation constant Kd amounted to 0.063 nM in assay [1], 0.065 nM in assay [2] and 0.062 nM in assay [3].

B7: TPP-23340 (antibody, human IgG4 S228P, lambda, V domains shown)
VH: B3 VH
VL: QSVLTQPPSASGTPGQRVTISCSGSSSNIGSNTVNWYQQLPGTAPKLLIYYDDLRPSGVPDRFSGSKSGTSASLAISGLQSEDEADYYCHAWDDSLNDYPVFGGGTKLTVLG
Take B7: the Kd in assay [1] amounted to 0.059 nM; in assay [2], 0.022 nM; in assay [3], 0.06 nM. The midpoint of the response in assay [4], the EC50, lay at 12.3 nM.

B8: TPP-23298 (antibody, human IgG4 S228P, lambda, V domains shown)
VH: B3 VH with S30Y, Y53T
VL: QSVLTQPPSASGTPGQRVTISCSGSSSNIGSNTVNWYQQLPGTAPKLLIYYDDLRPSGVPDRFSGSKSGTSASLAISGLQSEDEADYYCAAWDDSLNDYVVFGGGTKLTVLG
Turning to B8, the results for the Kd in assay [1], in assay [2] and in assay [3] were 0.074 nM, 0.087 nM and 0.078 nM, respectively. It took 1.6 nM to reach a half-maximal effect in assay [4] (EC50).

B9: TPP-23341 (antibody, human IgG4 S228P, lambda, V domains shown)
VH: B3 VH
VL: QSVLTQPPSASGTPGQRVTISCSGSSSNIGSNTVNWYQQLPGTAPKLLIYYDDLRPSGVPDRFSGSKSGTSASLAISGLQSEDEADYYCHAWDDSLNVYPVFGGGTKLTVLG
With B9, the Kd in assay [1] amounted to 0.092 nM; in assay [2], 0.091 nM; in assay [3], 0.087 nM. Also, the midpoint of the response in assay [4], the EC50, lay at 21.3 nM.

B10: TPP-23338 (antibody, human IgG4 S228P, lambda, V domains shown)
VH: B3 VH
VL: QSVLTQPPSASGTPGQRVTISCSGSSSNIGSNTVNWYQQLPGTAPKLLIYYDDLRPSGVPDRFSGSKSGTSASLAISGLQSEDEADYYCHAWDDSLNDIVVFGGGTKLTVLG
For B10, the Kd in assay [1] is 0.045 nM; in assay [2] it was 0.054 nM; in assay [3] it was 0.042 nM. Further, in assay [4], a half-maximal effect (EC50) was put at 9.6 nM.

B11: TPP-23347 (antibody, human IgG4 S228P, lambda, V domains shown)
VH: B3 VH with S30Y, S35L, Y53T
VL: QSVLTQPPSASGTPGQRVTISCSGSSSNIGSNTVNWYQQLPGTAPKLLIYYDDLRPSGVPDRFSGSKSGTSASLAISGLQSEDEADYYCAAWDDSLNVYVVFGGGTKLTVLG
Consider B11, for which the Kd came out at 0.055 nM in assay [1], 0.06 nM in assay [2] and 0.054 nM in assay [3]. In addition, the EC50 in assay [4] turned out to be 8.4 nM.

B12: TPP-23374 (antibody, human IgG4 S228P, lambda, V domains shown)
VH: B3 VH with S30Y
VL: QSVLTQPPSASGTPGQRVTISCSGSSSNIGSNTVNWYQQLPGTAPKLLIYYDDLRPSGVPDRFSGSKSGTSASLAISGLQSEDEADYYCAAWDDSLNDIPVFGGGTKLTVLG
As for B12, the Kd in assay [1] is 0.016 nM; in assay [2] it was 0.0081 nM; in assay [3] it was under 0.003 nM. For the same molecule, in assay [4], the half-maximal effective concentration (EC50) was found to be 6.1 nM.

B13: TPP-23334 (antibody, human IgG4 S228P, lambda, V domains shown)
VH: B3 VH
VL: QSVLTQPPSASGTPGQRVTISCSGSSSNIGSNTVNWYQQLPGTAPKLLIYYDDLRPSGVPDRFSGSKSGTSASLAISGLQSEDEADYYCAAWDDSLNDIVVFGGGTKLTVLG
Turning to B13, the Kd in assay [1] came to 0.062 nM; in assay [2], 0.021 nM; in assay [3], 0.015 nM. Also, in assay [4], the EC50 was 9.2 nM.

B14: TPP-23373 (antibody, human IgG4 S228P, lambda, V domains shown)
VH: B3 VH with S30Y
VL: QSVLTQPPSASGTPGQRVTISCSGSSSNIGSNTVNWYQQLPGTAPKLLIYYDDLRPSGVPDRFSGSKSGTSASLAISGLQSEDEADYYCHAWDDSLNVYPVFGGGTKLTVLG
Consider B14, for which the dissociation constant Kd in assay [1] stood at 0.083 nM; in assay [2], 0.11 nM; in assay [3], 0.072 nM. The molecule also displayed an EC50 in assay [4] of 17.6 nM.

B15: TPP-11489 (antibody, human IgG1, lambda)
heavy: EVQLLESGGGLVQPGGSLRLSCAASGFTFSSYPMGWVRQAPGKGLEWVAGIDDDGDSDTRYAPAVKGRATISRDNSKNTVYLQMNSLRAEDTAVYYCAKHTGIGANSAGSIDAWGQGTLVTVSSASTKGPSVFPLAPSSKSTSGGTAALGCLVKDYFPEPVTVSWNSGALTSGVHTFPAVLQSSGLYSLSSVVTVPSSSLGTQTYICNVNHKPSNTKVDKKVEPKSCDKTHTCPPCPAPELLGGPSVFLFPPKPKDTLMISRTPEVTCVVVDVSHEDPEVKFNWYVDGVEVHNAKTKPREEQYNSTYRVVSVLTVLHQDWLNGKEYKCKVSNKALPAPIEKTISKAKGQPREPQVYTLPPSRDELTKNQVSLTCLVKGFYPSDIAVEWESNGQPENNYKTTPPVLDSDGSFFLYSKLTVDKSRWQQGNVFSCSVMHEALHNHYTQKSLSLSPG
light: SYELTQPPSVSVSPGQTARITCSGGGSYTGSYYYGWYQQKPGQAPVTVIYYNNKRPSDIPERFSGSLSGTTNTLTISGVQAEDEADYYCGSADNSGDAFGTGTKVTVLGQPKAAPSVTLFPPSSEELQANKATLVCLISDFYPGAVTVAWKADSSPVKAGVETTTPSKQSNNKYAASSYLSLTPEQWKSHRSYSCQVTHEGSTVEKTVAPTECS
notes: human IgG1; also called Chiome; Chiome Prior Art (hIgG1)
Consider B15, for which the Kd in assay [1] worked out at 160 nM; in assay [2], 73 nM; in assay [3], 63 nM.

B16: TPP-30792 (antibody, human IgG1, lambda, V domains shown)
V domain 1: EVQLLESGGGLVQPGGSLRLSCAASGFTFRSYAVHWVRQAPGKGLEWVSSTEGSGVGTSYTDSVKGRFTISRDNSKNTLYLQMNSLRAEDTAVYYCARMLGGGNPLDYLDYWGQGTLVTVSS
V domain 2: QSVLTQPPSASGTPGQRVTISCSGSSSNLGEGYDVHWYQQLPGKAPKLLIYYSDFRPSGVSDRFSGSKSGTSASLAISGLQSEDEADYYCAAWDDSLSSQVFGGGTQVTVLG
notes: IgG1; prior art, WO 2020/261281; also called 3H4 Univ Ramot; 3H4 (Ramot) Clon I
For the molecule B16, the binding result in assay [1], in assay [2] and in assay [3] was “no binding” throughout.
